# Earlier results, collected in PMC4253632.
# Target: Syntaxin 4 (Homo sapiens) (UniProt Q12846)
# Chain of UniProt Q12846 (Q12846 whole entry): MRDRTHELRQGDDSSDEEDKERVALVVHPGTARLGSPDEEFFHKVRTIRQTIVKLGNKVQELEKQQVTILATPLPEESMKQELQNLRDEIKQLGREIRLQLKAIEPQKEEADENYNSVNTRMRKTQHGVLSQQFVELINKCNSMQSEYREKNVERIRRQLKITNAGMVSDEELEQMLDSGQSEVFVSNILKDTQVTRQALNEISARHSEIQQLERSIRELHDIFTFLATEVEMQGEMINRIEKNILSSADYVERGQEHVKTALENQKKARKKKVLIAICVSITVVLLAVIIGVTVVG
substance,measurement,value
Munc18c (from UniProt O00186),Kd,30 nM
